Experimental data as given in PMC3266974 (Journal of Medicinal Chemistry, 2012).

Molecular target: T1, bovine pancreas CPA (Bos taurus, UniProt P00730)
T1 sequence (P00730 111-419): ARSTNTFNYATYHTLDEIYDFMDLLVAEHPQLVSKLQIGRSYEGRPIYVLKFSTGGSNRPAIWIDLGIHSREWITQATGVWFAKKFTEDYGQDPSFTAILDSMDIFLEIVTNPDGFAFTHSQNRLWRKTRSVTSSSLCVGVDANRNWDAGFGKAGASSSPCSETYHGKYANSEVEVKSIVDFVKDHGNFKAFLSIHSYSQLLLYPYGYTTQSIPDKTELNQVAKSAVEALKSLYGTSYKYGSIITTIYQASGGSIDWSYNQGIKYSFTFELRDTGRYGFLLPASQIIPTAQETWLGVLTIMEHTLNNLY
Experiment: Inhibition of CPA, colorimetric substrate N-
Assay type: biochemical
Conditions: tested in duplicate, na = not active at 30 μM

Peptide 6: linear version of namalide (IFKF; not fully specified; Linear (uncyclized) namalide)
IC50: 4.5 ± 0.9 µM
